Source: patent publication US20150299332A1 (UNIVERSITY OF TSUKUBA, published 2015)

Molecular target: T1, human CD300a-Fc (human, UniProt Q9UGN4 18-180)
T1 construct: extracellular domain; Made from a chimeric cDNA as in Document 25; not shown: human IgG1 Fc
T1 sequence (looked up): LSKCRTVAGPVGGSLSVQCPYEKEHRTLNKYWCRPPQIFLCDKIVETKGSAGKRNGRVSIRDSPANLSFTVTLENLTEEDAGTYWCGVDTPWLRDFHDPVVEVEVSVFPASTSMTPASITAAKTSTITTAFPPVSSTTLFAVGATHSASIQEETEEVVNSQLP
Assay: flow cytometry binding inhibition: human CD300a-Fc on apoptotic Jurkat cells with TX49 (binding of TX49 to CD300a-Fc shown by blocking)
Method: First, Jurkat cells (human T-cell line) were suspended in RPMI 1640 medium, and the resulting medium was irradiated with UV for 60 minutes to prepare apoptotic Jurkat cells.
Further, cytometry analysis was carried out under the same test conditions as in Reference Example 1B except that the “Jurkat cell-derived apoptotic cells” were used as apoptotic cells instead of the apoptotic cells derived from wild-type mouse thymocytes; “human CD300a-Fc” was used instead of the “mouse CD300a-Fc”; and “TX49” or “control human IgG1” was used instead of “TX41” (results: FIG. 2E “TX49” or “HuIgG1”). “TX49” is an anti-human CD300a antibody (monoclonal antibody), and blocks binding of CD300a to the ligand.

B1: Human CD300a monoclonal antibody TX49 (mouse IgG1) (antibody, V domains shown)
VH: EVQLQQSGAELVKPGASVKLSCKASGYTFTSYWMQWVKQRPGQGLEWIGEIDPSDSYTNYNQKFKGKATLTVDTSSSTTYMQLSSLTSEDSAVYYCARWGMAYGTSSYWYFDVWGTGTTVTVSS
VL: DCDIQMTQTTSSLSASLGDRVTISCRASQDISNYLNWYQQKPDGTVKLLIYYTSRLHSGVPSRFSGSGSGTDYSLTISNLEQEDIATYFCQQGNTLPWTFGGGTKLEIKR
notes: also called anti-human CD300a monoclonal antibody; anti-human CD300a antibody
binding result: binds
